According to US20220315661A1 (Genmab, published 2022):
Values joined by “and” are separate entries in the source; they are usually repeats but may differ in a detail not shown here. Equal values may be shown once. Values belong to the binder of their own block, whether it stands above or below them.

How the values were obtained:
kDR5ECDdelHis [1] = biological target: T1, kDR5ECDdelHis (human); assay: Bio-Layer Interferometry (Octet HTX), antibody on AHC biosensor, kDR5ECDdelHis in solution, n = 2
T1 construct: DR5ECDdelHis in which the DR5 signal peptide (aa 1-57) is replaced by that of Kappa 2F8; C-terminal His tag; also called soluble recombinant extracellular domain of human DR5; human recombinant DR5
T1 chain: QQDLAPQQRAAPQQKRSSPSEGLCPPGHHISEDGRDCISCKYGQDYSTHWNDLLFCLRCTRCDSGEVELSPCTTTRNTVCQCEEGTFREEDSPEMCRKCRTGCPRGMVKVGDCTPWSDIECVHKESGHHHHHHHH

Murine DR5 = biological target: T2, Murine DR5 (mouse, UniProt Q9QZM4 53-381, limits assumed); assay: flow cytometry (FIG. 3D)
T2 construct: also called mouse DR5; Murine DRS (Uniprot Q9QZM4)
T2 sequence (Q9QZM4 53-381 limits assumed): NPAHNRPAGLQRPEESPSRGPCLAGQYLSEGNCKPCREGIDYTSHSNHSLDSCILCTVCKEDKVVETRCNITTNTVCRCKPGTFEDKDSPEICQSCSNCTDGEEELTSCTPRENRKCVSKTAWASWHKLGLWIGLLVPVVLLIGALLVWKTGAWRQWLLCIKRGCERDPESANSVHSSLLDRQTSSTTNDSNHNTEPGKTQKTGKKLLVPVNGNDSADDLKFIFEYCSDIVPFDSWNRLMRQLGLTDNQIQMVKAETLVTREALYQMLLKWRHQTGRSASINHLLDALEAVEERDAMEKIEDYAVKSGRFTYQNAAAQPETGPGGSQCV

[2] = biological target: DR5sh79-115ECDdel-FcRbHisCtag (human, with aa 79-115 replaced by the …); assay: ELISA, DR5 fusion protein captured by penta-his antibody
[3] = biological target: T3, Cyno DR5Mfdel-K420N (cynomolgus monkey DR5 with deletion of aa 185-213 and K420N), expressed on CHO-S cells (cynomolgus monkey); assay: flow cytometry on CHO-S cells expressing cynomolgus monkey DR5, average n = 4 (SD)
T3 construct: includes the signal peptide; also called CHO-S cells expressing cynomolgus monkey DR5
T3 chain: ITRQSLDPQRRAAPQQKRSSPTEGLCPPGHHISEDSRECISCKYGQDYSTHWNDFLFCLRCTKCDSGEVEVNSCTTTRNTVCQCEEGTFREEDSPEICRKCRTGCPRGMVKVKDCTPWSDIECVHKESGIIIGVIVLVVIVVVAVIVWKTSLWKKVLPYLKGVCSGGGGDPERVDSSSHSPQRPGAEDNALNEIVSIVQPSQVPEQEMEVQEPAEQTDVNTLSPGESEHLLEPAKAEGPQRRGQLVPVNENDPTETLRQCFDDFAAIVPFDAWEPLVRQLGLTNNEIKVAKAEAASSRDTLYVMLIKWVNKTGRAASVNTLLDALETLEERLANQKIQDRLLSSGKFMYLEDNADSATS

kDR5ECDdelHis [4] = biological target: T1, kDR5ECDdelHis; assay: Bio-Layer Interferometry (Octet HTX), antibody on AHC biosensor, kDR5ECDdelHis in solution, n = 3
DR5ECD-FcRbHisCtag = biological target: T4, DR5ECD-FcRbHisCtag (human); assay: ELISA, DR5 fusion protein captured on a penta-His antibody coat, detection with HRP goat anti-human IgG F(ab')2, OD 405 nm
T4 construct: also called fully human DR5 antigen; extracellular domain of human DR5 natural variant P32L

[5] = biological target: T5, DR5sh139-166ECDdel-FcRbHisCtag (human, with aa 139-166 replaced by the …); assay: as above
T5 chain: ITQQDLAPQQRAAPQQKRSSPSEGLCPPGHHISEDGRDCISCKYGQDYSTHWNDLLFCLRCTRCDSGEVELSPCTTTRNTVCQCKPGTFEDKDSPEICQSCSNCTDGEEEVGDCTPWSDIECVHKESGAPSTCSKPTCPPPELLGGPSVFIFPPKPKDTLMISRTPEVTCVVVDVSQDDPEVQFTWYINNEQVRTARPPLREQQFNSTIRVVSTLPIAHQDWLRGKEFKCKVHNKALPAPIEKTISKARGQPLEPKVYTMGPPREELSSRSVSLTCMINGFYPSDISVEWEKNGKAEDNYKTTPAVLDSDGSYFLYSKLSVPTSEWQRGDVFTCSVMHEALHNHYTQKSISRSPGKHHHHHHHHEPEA

Kd (kDR5ECDdelHis [1]): 28.5 nM
B1: IgG1-hDR5-05 (antibody)
heavy: not shown
light: DIQLTQSPSSLSASVGDRVTITCSASSSVSYMYWYQQKPGKAPKPWIYRTSNLASGVPSRFSGSGSGTDFTLTISSLQPEDFATYYCQQYHSYPPTFGGGTKVEIKRTVAAPSVFIFPPSDEQLKSGTASVVCLLNNFYPREAKVQWKVDNALQSGNSQESVTEQDSKDSTYSLSSTLTLSKADYEKHKVYACEVTHQGLSSPVTKSFNRGEC
notes: Humanized IgG1,kappa without the E430G mutation; also called WT counterpart of IgG1-hDR5-05-E430G

binding result (Murine DR5): no binding
B2: IgG1-hDR5-05-F405L (antibody)
heavy: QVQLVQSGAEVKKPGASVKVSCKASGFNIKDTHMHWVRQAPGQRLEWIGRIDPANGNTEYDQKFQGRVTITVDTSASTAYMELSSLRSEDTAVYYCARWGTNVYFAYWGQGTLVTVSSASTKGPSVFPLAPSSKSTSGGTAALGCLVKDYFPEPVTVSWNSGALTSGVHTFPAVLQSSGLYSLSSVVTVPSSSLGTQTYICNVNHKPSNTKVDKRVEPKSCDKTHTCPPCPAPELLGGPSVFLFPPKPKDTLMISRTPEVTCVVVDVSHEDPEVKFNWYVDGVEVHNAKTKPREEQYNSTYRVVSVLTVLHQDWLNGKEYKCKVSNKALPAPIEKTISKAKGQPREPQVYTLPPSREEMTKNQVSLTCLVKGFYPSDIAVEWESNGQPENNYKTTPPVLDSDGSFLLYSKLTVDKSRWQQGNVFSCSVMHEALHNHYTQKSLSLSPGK
light: B1 light
notes: Humanized IgG1,kappa with F405L; also called HC hDR5-05-F405L / LC hDR5-05

EC50 [3]: 0.17 µg/mL and 1.16 nM
Kd (kDR5ECDdelHis [4]): 27.1 nM
EC50 (read off the curve) (DR5ECD-FcRbHisCtag): ~0.02 µg/mL
EC50 (read off the curve) [5]: ~0.02 µg/mL
B3: IgG1-hDR5-05-E430G (antibody)
heavy: not shown
light: B1 light
notes: Humanized IgG1,kappa with E430G (Eu numbering); also called IgG1-DR5-05-E430G; HC hDR5-05-E430G / LC hDR5-05
binding result [2]: no binding (tested: range 0.46-1,000 ng/mL)
